The Kd is a measure of binding affinity in units of concentration. A word on the stoichiometry N: it is the number of molecules, sites or subunits per partner or assembly.

The labels stand for the following.
B1: Hef from Thermoplasma acidophilum, wild-type (natural protein, Thermoplasma acidophilum DSM 1728, UniProt Q9HI46 1-508, looked up)
chain: MIIQPREYQLNVFKNSIGQNTLIVMPTGLGKTIIAAMFIEKFYGEKKRSLMVAPTKPLVLQHARTIADSTGISENEIGVFTGEIDAEERELIWVTKKIFVSTPQVVFNDMRSGILDITKFDLIIFDEAHRAVGNYAYVDIAQEYLKYKKKLIIGLTASPGSSREKIDEIMANLGISKVIAKTEMDEDVRKYVKTIDVKLIKIREPDGTKEIVNMIDAVMSKLLEPVKSSNFSIGRSRKDLVATMQKVINSAKEDRSLFQLVRRITAAIRLDYLKEYIETQGIDVALHYLEEMEKSQDPGIRRAISMLSSLDEFATLRTKLMLAADGYTNPKMEKTLSIMESNVHGNARAIVFTHYRITSDLLMDYIQKNGTSLKPVRFIGQADRGSDEGLSQDQQKKIIEDFKNNVYNVLIATSIAEEGLDIPDTDFVIFYEAVPSEIRYIQRKGRTGRSRNGQVYILVFENSRDMAYYYSSIRKVSRMTQTIEDLRQESGSDEKEEKSDVQKTIFDF
B2: PCNA from Thermoplasma acidophilum (natural protein, Thermoplasma acidophilum DSM 1728, UniProt Q9HJQ0 1-246, looked up)
chain: MIRLNLSVKNLKEITDLLSTIVSEAKFRVDENGMSVTAVDPAHVAMIRLEVPKEAFVEFHTDGQEEIALDIDRLKSVIRLASSSENVGITKDGEKLKFELGTINKSISLLDPSTIVTPKIPNITSEYYAVLKKSDFERGLRAAEDISDSIRFTLSQDGFKAYSHSESEESEMILPKDLITDMSCNTTIKSSYPLEYLLKFIKAISSTDSLKLSFRDDYPLSVEFYLDQNPGAKIKGLFLLAPRMEQ

In data set [1] the target is Flag-FANCM PIP-box mutant (L8R/W12S), full length (human) (UniProt Q8IYD8). Put plainly: proximity ligation.
Sequence of Flag-FANCM PIP-box mutant (L8R/W12S), full length (human) (Q8IYD8 whole entry L8R/W12S): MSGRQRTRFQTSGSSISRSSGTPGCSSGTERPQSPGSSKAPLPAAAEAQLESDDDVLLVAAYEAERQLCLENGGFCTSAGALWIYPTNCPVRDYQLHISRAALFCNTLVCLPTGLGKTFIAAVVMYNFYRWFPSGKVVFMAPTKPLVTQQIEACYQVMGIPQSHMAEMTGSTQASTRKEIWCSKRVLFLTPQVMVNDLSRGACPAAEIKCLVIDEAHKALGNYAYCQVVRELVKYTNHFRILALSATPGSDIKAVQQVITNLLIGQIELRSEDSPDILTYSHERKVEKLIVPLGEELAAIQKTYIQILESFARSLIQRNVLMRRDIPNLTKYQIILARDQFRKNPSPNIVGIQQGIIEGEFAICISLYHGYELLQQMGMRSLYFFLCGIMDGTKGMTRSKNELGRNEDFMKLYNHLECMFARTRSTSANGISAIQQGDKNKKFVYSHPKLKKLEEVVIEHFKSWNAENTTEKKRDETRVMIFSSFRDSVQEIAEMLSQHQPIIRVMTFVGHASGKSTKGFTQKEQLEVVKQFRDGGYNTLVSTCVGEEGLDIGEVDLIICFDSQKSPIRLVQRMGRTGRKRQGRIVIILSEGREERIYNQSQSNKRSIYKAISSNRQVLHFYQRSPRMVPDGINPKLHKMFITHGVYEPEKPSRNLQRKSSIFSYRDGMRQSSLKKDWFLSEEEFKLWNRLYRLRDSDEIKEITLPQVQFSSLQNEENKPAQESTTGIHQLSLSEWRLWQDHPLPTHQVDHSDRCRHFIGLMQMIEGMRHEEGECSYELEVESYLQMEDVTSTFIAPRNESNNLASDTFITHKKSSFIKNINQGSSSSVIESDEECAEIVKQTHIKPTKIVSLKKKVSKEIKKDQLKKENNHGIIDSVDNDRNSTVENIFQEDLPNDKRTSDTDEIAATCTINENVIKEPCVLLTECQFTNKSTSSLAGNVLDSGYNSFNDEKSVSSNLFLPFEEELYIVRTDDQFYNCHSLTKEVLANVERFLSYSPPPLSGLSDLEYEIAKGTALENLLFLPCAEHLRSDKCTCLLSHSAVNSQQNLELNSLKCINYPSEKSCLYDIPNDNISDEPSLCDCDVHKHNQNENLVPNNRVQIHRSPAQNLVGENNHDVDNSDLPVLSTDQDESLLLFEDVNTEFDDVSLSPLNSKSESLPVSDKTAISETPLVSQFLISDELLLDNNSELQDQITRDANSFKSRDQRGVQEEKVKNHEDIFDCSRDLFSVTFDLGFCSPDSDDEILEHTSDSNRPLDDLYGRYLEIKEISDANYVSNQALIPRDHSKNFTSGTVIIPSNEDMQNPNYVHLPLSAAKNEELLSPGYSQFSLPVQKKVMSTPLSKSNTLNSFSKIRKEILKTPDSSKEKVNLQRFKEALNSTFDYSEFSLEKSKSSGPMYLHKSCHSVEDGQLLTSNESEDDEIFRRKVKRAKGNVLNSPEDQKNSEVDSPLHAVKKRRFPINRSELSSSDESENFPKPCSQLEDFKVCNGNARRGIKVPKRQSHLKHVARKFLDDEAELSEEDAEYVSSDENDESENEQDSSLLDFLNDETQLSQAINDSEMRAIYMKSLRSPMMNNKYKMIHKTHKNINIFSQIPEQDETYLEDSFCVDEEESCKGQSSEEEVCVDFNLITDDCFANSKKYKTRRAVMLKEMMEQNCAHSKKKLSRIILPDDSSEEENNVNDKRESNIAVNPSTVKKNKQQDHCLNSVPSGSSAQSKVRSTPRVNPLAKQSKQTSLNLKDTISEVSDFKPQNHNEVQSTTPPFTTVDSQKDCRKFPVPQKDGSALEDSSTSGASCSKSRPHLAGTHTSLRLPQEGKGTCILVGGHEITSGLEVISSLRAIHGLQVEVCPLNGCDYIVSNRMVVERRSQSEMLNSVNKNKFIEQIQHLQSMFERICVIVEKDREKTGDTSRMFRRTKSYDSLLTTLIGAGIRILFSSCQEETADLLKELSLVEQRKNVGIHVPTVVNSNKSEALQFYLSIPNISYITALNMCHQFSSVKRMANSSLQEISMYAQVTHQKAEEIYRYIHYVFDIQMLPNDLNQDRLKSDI
The target of the next data set is Human PCNA, recombinant (human, UniProt P12004 1-261). Put plainly: ITC. (ITC needs no label: the signal is the heat of the interaction.)
Sequence of Human PCNA, recombinant (P12004 whole entry): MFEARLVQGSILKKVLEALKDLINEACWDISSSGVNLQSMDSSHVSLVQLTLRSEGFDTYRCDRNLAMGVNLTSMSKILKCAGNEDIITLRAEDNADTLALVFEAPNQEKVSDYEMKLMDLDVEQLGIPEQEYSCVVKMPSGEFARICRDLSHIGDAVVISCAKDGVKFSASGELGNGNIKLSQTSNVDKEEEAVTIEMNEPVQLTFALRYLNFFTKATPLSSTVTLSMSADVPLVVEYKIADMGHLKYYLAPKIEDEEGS
The target in data set [2] is B2. Put plainly: SAXS.
In data set [3] the target is B2. Put plainly: SEC. A general note: SEC sorts molecules by how far they enter the pores of the column.
Data set [4] deals with B1. The data set can be described thus: ITC.
The data set “SEC” concerns the molecule itself. Put plainly: SEC.

Turning to “PCNA, endogenous (from UniProt P12004 1-261) (natural protein)”, the PLA signal relative to wildtype FANCM (HU-treated cells) in data set [1] turned out to be 50%. MSGRQRTLFQTWGSSIS (peptide, UniProt Q8IYD8 1-17, looked up) [hsFANCM 1-17 wildtype peptide]: the Kd with Human PCNA, recombinant came to 13 µM. B1: the “stoichiometry N” value is 3 taHef per taPCNA trimer in data set [2] and 3 taHef monomers per taPCNA homotrimer in data set [3]. B2 returned a Kd in data set [4] of 1 µM. Also, the “stoichiometry N” value in the data set “SEC” was determined as 3.

For the origin of these results see article PMC4838364 (Nucleic Acids Research, 2016).
